According to US20210030885A1, “HUMANIZED ANTI-LIV1 ANTIBODIES FOR THE TREATMENT OF CANCER” (priority 2019, published 2021):
Marks after values point to notes of the source that are not given here.

Assay: Observed pharmacokinetics of ADC and MMAE after LV Q1W or Q3W dosing
Assay type: in vivo, human
Method: To investigate if fractionated dosing could increase treatment efficacy or reduce the number and severity of adverse events, various fractionated dosing schemes of ladiratuzumab vedotin (LV) were tested to measure for changes in Cmax, Ctrough, and AUC at similar total dose intensities and exposure.
Breast cancer patients were treated with (LV).
LV was administered as 30-minute IV infusion at the indicated interval. […]

[1] = MMAE, LV 1.0 mg/kg weekly (obs.), n = 4, geometric mean (CV %)
[2] = MMAE, LV 2.5 mg/kg q3wk (obs.), geometric mean (CV %)

## ladiratuzumab vedotin [LV]
ADC, 1.0 mg/kg weekly (obs.), n = 4, estimated from observed AUC0-7 d of Cycle 1 Dose #1 and Dose #3
  AUC0-21: 215.4* μg*day/mL
ADC, 1.0 mg/kg weekly (obs.), n = 4, geo. mean (CV %)
  Cmax: 31.4 (25) μg/mL
ADC, 1.25 mg/kg weekly (obs.), n = 1
  Ctrough: 7.64 µg/mL
ADC, 1.25 mg/kg weekly (obs.), n = 5, estimated from observed AUC0-7 d of Cycle 1 Dose #1 and Dose #3
  AUC0-21: 266.9* μg*day/mL
ADC, 1.25 mg/kg weekly (obs.), n = 5, geo. mean (CV %)
  Cmax: 43.3 (31) μg/mL
ADC, 2.5 mg/kg q3wk (obs.), n = 97, geo. mean (CV %)
  AUC0-21: 210 (27) μg*day/mL
ADC, 2.5 mg/kg q3wk (obs.), n = 131, geo. mean (CV %)
  Cmax: 85 (27) μg/mL
MMAE, LV 1.0 mg/kg weekly (obs.), n = 4, estimated from observed AUC0-7 d of Cycle 1 Dose #1 and Dose #3
  AUC0-21: 29.7* μg*day/mL
[1]
  Cmax: 2.1 (61) μg/mL
  Ctrough: 1.26(75) μg/mL
MMAE, LV 1.25 mg/kg weekly (obs.), n = 2, geometric mean (CV %)
  Ctrough: 2.95(160) μg/mL
MMAE, LV 1.25 mg/kg weekly (obs.), n = 5, estimated from observed AUC0-7 d of Cycle 1 Dose #1 and Dose #3
  AUC0-21: 53.6* μg*day/mL
MMAE, LV 1.25 mg/kg weekly (obs.), n = 5, geometric mean (CV %)
  Cmax: 3.74 (68) μg/mL
[2]
  AUC0-21: 50.3 (61) μg*day/mL
  Cmax: 5.55 (56) μg/mL
  Ctrough: 0.34 (80) μg/mL
